Results on eight sequences are retold here after the supplement of paper PMC10065799, “High-throughput profiling of sequence recognition by tyrosine kinases and SH2 domains using bacterial peptide display” (eLife, 2023).

The target of one data set is c-Src SH2. Put plainly: SH2 binding enrichment of the phosphorylated peptide, bacterial display (enrichment ratio); higher = better substrate or ligand; peptides without Tyr show the background.
In a further data set the target is SHP2-C SH2. Described as above.
The next data set concerns the target Grb2 SH2 (UniProt P62993). The data set is described as above.
A further data set deals with Hck (UniProt P08631). Put plainly: phosphorylation enrichment, bacterial display (enrichment ratio); higher = better substrate or ligand; peptides without Tyr show the background.
The next data set deals with EPHB1 (UniProt P54762). Described as above.
The next data set deals with Jak2 (UniProt O60674). Described as above.
Another data set relates to Fer (mouse). The description is as above.
A further data set concerns the target FGFR3 (UniProt P22607). Described as above.
The next data set has as its target FGFR1 (UniProt P11362). The data set is described as above.
For a further data set, the system named is c-Src. The data set is described as above.
A further data set relates to c-Abl (mouse). The description is as above.
The next data set addresses Fes (UniProt P07332). Described as above.
A further data set concerns the target MERTK (UniProt Q12866). The data set is described as above.
A further data set has as its target Fyn (UniProt P06241). Described as above.
The target of another data set is EPHB2 (UniProt P29323). The data set is described as above.
For a further data set, the system named is AncSZ. Described as above.
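For SH2 binding enrichment of the phosphorylated peptide, bacterial display in this document: peptide library displayed on the E. coli surface as eCPX fusions, selected cells deep-sequenced, score is each peptide's frequency after selection divided by its frequency in the input.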
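For phosphorylation enrichment, bacterial display in this document: 11-residue human phosphosite peptides and single-mutation variants displayed on the E. coli surface, counted by deep sequencing, each peptide's frequency after selection divided by its frequency in the unselected input library; frequency after pTyr selection over input frequency; kinase dosed for 20-30% of maximal phosphorylation in three min.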

FGFR1, sequence (P11362 whole entry, looked up): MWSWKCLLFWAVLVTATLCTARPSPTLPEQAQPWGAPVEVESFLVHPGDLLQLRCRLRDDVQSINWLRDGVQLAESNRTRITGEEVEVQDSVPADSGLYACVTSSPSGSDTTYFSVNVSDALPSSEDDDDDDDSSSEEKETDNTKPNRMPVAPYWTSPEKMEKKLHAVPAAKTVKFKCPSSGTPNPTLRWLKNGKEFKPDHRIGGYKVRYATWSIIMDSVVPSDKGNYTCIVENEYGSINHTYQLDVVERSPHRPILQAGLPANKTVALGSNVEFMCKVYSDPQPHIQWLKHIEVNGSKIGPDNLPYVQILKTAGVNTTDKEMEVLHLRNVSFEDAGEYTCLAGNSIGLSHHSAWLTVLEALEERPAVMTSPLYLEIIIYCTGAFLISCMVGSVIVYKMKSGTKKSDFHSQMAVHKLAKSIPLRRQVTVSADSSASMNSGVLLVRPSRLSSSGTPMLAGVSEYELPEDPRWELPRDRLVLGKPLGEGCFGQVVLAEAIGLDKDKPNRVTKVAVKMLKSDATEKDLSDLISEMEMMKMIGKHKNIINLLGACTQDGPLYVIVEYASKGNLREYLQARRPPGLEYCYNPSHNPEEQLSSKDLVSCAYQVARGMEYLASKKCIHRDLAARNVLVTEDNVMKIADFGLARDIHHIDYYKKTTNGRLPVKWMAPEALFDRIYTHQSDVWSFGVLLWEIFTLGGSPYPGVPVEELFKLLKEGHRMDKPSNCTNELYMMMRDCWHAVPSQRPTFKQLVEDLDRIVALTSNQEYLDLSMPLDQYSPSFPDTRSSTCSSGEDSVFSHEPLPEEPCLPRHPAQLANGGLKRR
Fes, sequence (P07332 whole entry, looked up): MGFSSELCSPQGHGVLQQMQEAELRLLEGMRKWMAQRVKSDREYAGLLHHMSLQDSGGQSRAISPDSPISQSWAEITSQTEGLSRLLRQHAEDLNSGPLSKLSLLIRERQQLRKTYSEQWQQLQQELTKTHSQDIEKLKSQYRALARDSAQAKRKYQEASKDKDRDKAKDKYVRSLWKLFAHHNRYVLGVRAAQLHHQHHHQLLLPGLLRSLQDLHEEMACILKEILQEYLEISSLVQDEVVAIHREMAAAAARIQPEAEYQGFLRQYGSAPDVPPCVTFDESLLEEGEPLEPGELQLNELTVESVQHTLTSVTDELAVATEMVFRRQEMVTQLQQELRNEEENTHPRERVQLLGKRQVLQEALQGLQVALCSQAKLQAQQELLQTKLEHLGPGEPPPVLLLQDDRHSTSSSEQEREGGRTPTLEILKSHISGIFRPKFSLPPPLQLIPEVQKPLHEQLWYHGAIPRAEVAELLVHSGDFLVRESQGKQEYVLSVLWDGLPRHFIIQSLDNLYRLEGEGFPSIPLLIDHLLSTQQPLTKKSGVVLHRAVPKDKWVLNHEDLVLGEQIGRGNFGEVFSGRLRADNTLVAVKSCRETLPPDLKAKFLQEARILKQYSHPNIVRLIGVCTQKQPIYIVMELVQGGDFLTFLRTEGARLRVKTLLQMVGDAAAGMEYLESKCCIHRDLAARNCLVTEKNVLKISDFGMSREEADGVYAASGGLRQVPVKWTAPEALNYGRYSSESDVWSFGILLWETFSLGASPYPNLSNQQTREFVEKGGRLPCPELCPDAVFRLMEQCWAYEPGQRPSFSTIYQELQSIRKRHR
FGFR3, sequence (P22607 whole entry, looked up): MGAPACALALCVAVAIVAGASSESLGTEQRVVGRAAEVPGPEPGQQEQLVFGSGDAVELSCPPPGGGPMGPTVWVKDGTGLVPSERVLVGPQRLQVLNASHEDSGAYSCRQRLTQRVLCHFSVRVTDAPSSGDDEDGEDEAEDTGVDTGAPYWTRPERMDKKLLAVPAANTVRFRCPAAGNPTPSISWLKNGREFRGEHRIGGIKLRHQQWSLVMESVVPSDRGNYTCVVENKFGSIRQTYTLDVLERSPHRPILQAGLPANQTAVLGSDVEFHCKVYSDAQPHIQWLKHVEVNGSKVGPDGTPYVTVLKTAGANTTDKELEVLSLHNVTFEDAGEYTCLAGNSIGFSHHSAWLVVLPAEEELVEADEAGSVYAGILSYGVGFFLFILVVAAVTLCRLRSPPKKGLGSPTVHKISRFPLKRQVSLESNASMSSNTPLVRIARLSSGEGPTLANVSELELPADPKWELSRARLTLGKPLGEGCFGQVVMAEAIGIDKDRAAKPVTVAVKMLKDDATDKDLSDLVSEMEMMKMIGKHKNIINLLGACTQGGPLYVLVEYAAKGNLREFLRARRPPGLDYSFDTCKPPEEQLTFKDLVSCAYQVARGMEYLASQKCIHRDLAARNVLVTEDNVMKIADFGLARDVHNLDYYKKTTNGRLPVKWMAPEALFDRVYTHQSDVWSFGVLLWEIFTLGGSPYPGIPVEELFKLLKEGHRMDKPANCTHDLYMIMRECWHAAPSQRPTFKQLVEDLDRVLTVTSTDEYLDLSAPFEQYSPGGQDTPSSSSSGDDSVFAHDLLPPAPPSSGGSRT
Fyn, sequence (P06241 whole entry, looked up): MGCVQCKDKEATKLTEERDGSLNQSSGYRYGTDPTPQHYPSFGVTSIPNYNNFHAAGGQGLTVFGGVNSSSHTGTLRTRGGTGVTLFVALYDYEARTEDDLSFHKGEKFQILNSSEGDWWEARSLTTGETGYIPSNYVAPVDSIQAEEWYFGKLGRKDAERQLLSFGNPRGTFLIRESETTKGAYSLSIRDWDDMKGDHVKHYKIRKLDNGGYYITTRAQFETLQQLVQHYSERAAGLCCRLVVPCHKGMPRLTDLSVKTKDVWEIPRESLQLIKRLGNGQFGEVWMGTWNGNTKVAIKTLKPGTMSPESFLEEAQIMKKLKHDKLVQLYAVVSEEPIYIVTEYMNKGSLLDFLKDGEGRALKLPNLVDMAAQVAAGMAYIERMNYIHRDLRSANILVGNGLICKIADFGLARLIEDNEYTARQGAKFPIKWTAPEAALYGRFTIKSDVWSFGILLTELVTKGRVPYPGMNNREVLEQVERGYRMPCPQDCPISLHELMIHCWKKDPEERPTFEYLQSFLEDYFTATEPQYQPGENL
Jak2, sequence (O60674 whole entry, looked up): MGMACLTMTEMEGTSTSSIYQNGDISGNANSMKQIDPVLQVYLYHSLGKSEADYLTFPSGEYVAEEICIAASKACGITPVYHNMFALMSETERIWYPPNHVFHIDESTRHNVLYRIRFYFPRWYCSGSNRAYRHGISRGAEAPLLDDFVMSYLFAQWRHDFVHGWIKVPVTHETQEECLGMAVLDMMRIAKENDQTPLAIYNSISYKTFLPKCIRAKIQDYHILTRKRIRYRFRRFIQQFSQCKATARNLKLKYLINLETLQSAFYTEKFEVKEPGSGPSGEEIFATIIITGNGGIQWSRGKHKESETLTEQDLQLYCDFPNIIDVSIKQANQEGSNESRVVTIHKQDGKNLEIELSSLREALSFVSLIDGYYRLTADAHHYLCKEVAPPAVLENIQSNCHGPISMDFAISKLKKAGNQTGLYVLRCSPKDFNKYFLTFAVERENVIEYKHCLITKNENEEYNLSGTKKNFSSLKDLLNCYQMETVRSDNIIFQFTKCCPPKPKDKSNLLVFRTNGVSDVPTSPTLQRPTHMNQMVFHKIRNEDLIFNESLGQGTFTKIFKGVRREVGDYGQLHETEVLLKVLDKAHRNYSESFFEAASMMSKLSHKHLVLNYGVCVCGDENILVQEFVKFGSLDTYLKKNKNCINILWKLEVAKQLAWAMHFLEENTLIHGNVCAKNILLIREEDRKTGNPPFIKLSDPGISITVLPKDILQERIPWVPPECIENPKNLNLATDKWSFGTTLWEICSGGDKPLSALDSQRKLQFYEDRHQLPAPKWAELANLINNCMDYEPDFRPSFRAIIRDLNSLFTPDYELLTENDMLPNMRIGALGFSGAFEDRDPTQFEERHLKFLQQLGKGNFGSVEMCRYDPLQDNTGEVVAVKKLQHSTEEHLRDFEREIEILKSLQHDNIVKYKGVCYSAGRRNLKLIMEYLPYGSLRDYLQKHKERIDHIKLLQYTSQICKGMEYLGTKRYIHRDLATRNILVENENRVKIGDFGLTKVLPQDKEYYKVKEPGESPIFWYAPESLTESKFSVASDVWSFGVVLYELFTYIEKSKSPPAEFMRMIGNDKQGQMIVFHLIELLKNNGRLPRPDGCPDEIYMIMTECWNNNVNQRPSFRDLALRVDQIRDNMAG
Hck, sequence (P08631 whole entry, looked up): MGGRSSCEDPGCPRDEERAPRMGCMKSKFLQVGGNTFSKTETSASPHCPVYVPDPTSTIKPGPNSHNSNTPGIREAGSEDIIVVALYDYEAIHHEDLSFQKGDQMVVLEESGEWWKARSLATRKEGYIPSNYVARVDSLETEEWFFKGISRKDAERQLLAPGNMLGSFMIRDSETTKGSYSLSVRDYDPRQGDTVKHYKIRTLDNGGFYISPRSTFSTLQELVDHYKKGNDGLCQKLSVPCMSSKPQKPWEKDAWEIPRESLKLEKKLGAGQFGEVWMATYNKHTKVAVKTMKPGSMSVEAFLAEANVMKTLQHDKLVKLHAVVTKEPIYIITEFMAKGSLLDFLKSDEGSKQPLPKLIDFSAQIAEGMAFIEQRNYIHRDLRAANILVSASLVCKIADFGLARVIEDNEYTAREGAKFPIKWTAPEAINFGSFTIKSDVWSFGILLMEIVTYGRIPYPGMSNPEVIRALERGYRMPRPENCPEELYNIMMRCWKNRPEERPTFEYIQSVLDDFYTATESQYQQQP
Grb2 SH2, sequence (P62993 whole entry, looked up): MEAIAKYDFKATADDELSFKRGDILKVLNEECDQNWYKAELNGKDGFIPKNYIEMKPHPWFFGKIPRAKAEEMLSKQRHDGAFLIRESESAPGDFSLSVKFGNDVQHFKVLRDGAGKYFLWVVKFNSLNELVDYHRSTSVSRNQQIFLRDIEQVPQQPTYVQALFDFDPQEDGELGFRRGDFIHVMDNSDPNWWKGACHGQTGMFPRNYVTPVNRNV

On to TAPFNYSFIFK [RAB14_Y8_YF], for which the SH2 binding enrichment with c-Src SH2 worked out at 0.724; with SHP2-C SH2, 0.722; with Grb2 SH2, 0.581. Further, the phosphorylation enrichment came out at 0.56 in the data set with Hck; 2 in the data set with EPHB1; 0.757 in the data set with Jak2; 0.376 with Fer (mouse); 0.771 with FGFR3; 0.405 with FGFR1. Further, the phosphorylation enrichment turned out to be 0.377 in the data set on c-Src; 0.657 with c-Abl (mouse); 1.1 with Fes; 2.27 in the data set with MERTK; 0.493 with Fyn; 0.692 with EPHB2. In addition, the phosphorylation enrichment with AncSZ stood at 0.975.
Turning to TFRPPYFHRDC [HGD_Y333_N337D_YF], the SH2 binding enrichment with c-Src SH2 stood at 0.93; with SHP2-C SH2 it was 0.741; with Grb2 SH2, 1.18. The phosphorylation enrichment with Hck came to 0.454; with EPHB1, 0.432; in the data set with Jak2 it was 0.685; with Fer (mouse), 0.422; in the data set with FGFR3, 2; in the data set with FGFR1, 0.496. In addition, the phosphorylation enrichment is 0.558 in the data set on c-Src; 0.587 in the data set on c-Abl (mouse); 0.847 with Fes; 0.424 in the data set with MERTK; 0.427 with Fyn; 0.431 with EPHB2. Besides, the phosphorylation enrichment in the data set with AncSZ is 0.617.
As for ALKKPYGVLYK [RPF2_Y59], the SH2 binding enrichment in the data set with c-Src SH2 stood at 1.38; with SHP2-C SH2, 2.38; in the data set with Grb2 SH2, 1.54. Also, the phosphorylation enrichment with Hck amounted to 0.675; with EPHB1 it was 0.544; with Jak2, 0.72; in the data set on Fer (mouse) it was 0.5; in the data set with FGFR3 it was 0.516; in the data set with FGFR1, 0.455. Besides, the phosphorylation enrichment is 0.707 with c-Src; 0.675 with c-Abl (mouse); 0.775 with Fes; 0.397 with MERTK; 0.503 with Fyn; 0.4 with EPHB2. Besides, in the data set with AncSZ, the phosphorylation enrichment is 0.643.
Take VKANTYEKFWL [GATM_Y100_P105L_YF]: the SH2 binding enrichment in the data set with c-Src SH2 stood at 0.794; with SHP2-C SH2 it was 0.807; with Grb2 SH2 it was 0.819. The phosphorylation enrichment is 0.684 with Hck; 0.562 in the data set with EPHB1; 0.821 in the data set with Jak2; 2.9 in the data set on Fer (mouse); 0.722 with FGFR3; 0.382 in the data set with FGFR1. Further, the phosphorylation enrichment with c-Src stood at 1.11; with c-Abl (mouse), 0.672; in the data set with Fes, 1.07; in the data set with MERTK it was 1.19; with Fyn, 0.803; in the data set with EPHB2 it was 0.545. Also, in the data set on AncSZ, the phosphorylation enrichment is 0.887.
Take RNVYYYSYLLK [PTEN_Y178_Y174N]: the SH2 binding enrichment is 1.61 with c-Src SH2, 2.1 with SHP2-C SH2 and 1.5 in the data set with Grb2 SH2. For the same sequence, the phosphorylation enrichment with Hck is 5.15; with EPHB1, 8.15; with Jak2, 8.72; in the data set on Fer (mouse), 1.59; in the data set with FGFR3, 8.38; with FGFR1, 9.89. Moreover, the phosphorylation enrichment in the data set on c-Src was determined as 7.3; with c-Abl (mouse), 9.24; in the data set with Fes, 2.56; with MERTK, 11.5; in the data set with Fyn, 3.94; with EPHB2, 5.19. In addition, the phosphorylation enrichment in the data set on AncSZ is 3.58.
Turning to ELTSVYDSRAR [SENP1_Y349], the SH2 binding enrichment amounted to 0.397 with c-Src SH2, 0.395 in the data set with SHP2-C SH2 and 0.761 with Grb2 SH2. The phosphorylation enrichment with Hck came to 1.62; in the data set with EPHB1, 0.35; with Jak2, 0.592; in the data set on Fer (mouse), 0.432; in the data set with FGFR3, 0.574; in the data set with FGFR1, 0.491. In addition, the phosphorylation enrichment in the data set on c-Src came out at 1.03; in the data set with c-Abl (mouse), 0.557; with Fes it was 0.624; with MERTK, 0.52; with Fyn, 0.697; in the data set with EPHB2 it was 0.507. Also, the phosphorylation enrichment with AncSZ worked out at 0.585.
For the sequence KINKMYSDHAM, the SH2 binding enrichment in the data set with c-Src SH2 worked out at 0.354; with SHP2-C SH2 it was 0.602; with Grb2 SH2 it was 0.705. Besides, the phosphorylation enrichment in the data set with Hck was 0.308; with EPHB1, 0.351; with Jak2, 0.5; with Fer (mouse), 0.408; with FGFR3, 0.364; with FGFR1, 0.315. Moreover, the phosphorylation enrichment in the data set with c-Src was found to be 0.416; in the data set with c-Abl (mouse), 0.499; with Fes it was 0.463; in the data set with MERTK it was 0.432; with Fyn, 0.349; with EPHB2, 0.285. Also, the phosphorylation enrichment with AncSZ was 0.495.
On to RLLRGYRQDAF [HLA-A_Y137_F133L_YF], for which the figures for the SH2 binding enrichment with c-Src SH2, with SHP2-C SH2 and with Grb2 SH2 were 0.465, 0.965 and 0.762, respectively. Also, the phosphorylation enrichment was 0.604 with Hck; 0.809 in the data set with EPHB1; 0.854 in the data set with Jak2; 0.659 in the data set on Fer (mouse); 0.676 in the data set with FGFR3; 0.547 with FGFR1. Also, the phosphorylation enrichment was 0.819 with c-Src; 0.807 in the data set on c-Abl (mouse); 0.981 with Fes; 0.647 with MERTK; 0.678 with Fyn; 0.334 with EPHB2. Moreover, the phosphorylation enrichment with AncSZ stood at 1.22.
